To fix the notation:
B1: DENV-4 antigen (other)
chain: SNAIKGMSYTMCSGKFSIDKEMAETQHGTTVVKVKYEGTGAPCKVPIEIRDVNKEKVVGRIISSTPFAENTNSVTNIELEPPFGDSYIVIGVGDSALTLHWFR
B2: DENV-3 antigen (other)
chain: SNALKGMSYAMCTNTFVLKKEVSETQHGTILIKVEYKGEDAPCKIPFSTEDGQGKAHNGRLITANPVVTKKEEPVNIEAEPPFGESNIVIGIGDNALKINWYKK

Common to all, as to assay: size exclusion chromatography of the tetravalent antigen mixture without adjuvant
The target of the assay “DENV-3 antigen” is B2.
For another assay, the target named is DENV-2 antigen (dengue virus serotype 2 (DENV-2), UniProt P14337 573-674).
The assay “DENV-4 antigen” addresses B1.

Regarding B1, the binding result with DENV-3 antigen and with DENV-2 antigen was “no binding” each time.
Consider B2, for which, in the assay with DENV-2 antigen, the binding result is recorded as “no binding”.

B3: DENV-1 antigen (other)
chain: SNALKGVSYVMCTGSFKLEKEVAETQHGTVLVQVKYEGTDAPCKIPISTQDEKGVTQNGRLITANPIVTDKEKPVNIETEPPFGESYIVIGAGEKALKLSWFK
notes: also called DENV-1 Ag
B3: the binding result with DENV-4 antigen, with DENV-3 antigen and with DENV-2 antigen was “no binding” in each case.
